Data from the MegaScale stability set (Tsuboyama et al. 2023).

B1: 5KPH (parent)
chain: EEKRQVKQVAKEKLLEQSPNSKVQVRRVQKQGNTIRVELELRTNGKKENYTVEVERQGNTWTVKRITRT

Variants of: B1
Assay: folding stability dG (cDNA display proteolysis); higher = more stable
Conditions: PBS, room temperature

Folding stability dG [kcal/mol] of substitutions, site by site:
E55: D 3.2 | C 3.34 | A 3.45
Y50: W 4.12 | T 1.47 | Q 1.33 | L 2.84 | F 3.74 | M 2.58 | S 1.25 | A 2.98 | R 1.2 | K 1.24 | V 3.56 | I 3.17 | P -0.674 | H 2.1 | C 2.79 | E -0.081 | G 0.705 | N 0.663
E38: L 4.18 | Y 4.76 | P 1.08 | F 4.66 | A 3.62 | T 3.99 | D 3.91 | N 3.51 | V 3.85 | G 3.2 | H 4.14 | Q 3.76 | I 4.1 | W 4.29 | C 3.66 | S 3.89 | M 4.43 | K 3.7 | R 3.69
N44: Q 3.67 | V 3.47 | L 3.83 | T 3.27 | P 3.4 | A 3.81 | S 3.76 | W 3.67 | F 3.7 | M 3.84 | C 3.5 | K 3.77 | D 3.79 | Y 3.78 | R 3.66 | E 4.02 | I 3.46 | G 3.79 | H 3.79
V37: Y 2.32 | F 2.39 | G 1.21 | K 0.177 | I 3.5 | W 1.87 | S 0.645 | L 3.33 | T 1.28 | A 2.15 | C 2.65 | N -0.204 | Q -0.216 | M 2.89 | R -0.176 | H -0.646
V54: Q 0.909 | S 1.63 | R 0.035 | L 3.94 | G 1.44 | E 1.33 | W 2.75 | H 0.815 | M 3.85 | T 2.23 | N 0.723 | Y 2.94 | I 3.92 | C 3.36 | F 4.06 | K 1.28 | A 2.62 | D -0.632
R36: V 4.13 | S 3.85 | T 3.9 | Q 3.75 | Y 4.54 | W 4.21
V52: A 3.31 | Q -0.464 | M 3.22 | Y 1.78 | W 1.58 | L 3.48 | F 2.52 | T 1.61 | S 1.21 | G 0.851 | C 2.92 | I 3.65
E48: H 3.34 | V 3.63 | P 1.23 | D 3.35 | Y 3.75 | W 3.87 | M 3.55 | S 3.57 | C 3.38 | R 3.35 | I 3.52 | K 3.22 | L 3.39 | T 3.65 | G 2.67 | N 3.08 | Q 3.7 | A 3.58 | F 3.57
K47: N 3.59 | S 3.92 | W 3.75 | E 3.13 | Q 3.64 | Y 3.8 | R 4.02 | H 3.94 | F 3.86 | L 4.04 | I 4.14 | T 4.05 | C 3.64 | D 2.91 | A 3.71 | M 3.77 | V 4.06 | P 3.31 | G 3.03
R42: K 3.57 | E 4.12 | C 3.54 | V 4.14 | H 3.91 | Y 4.45 | L 4.08 | T 4.4 | D 4.2 | S 3.91 | A 3.59 | F 4.66 | G 3.04 | N 4.19 | I 4.28 | Q 3.81 | W 4.57 | M 3.85 | P 1.28
T43: D 3.65 | K 3.69 | W 3.7 | V 3.65 | M 3.68 | H 3.98 | N 3.87 | I 3.72 | Q 3.91 | R 3.47 | A 3.72 | F 3.87 | G 3.6 | L 3.94 | P 2.17 | S 3.85 | Y 3.88 | E 3.78 | C 3.24
N49: V 4.07 | H 4.04 | W 4.2 | Y 4.3 | R 4.09 | F 4.14 | I 4.22 | A 3.73 | Q 3.93 | P 2.7 | E 3.61 | T 4.14 | M 4.18 | S 3.86 | G 3.81 | L 4.4 | D 3.57 | K 4.23 | C 3.73
L41: K 2.73 | V 4.07 | W 2.39 | Y 2.35 | T 3.36 | N 1.7 | E 1.66 | I 3.59 | H 2.19 | P 0.528 | C 3.37 | S 3.24 | D 2.04 | M 3.89 | G 2.38 | R 2.65 | F 2.69 | A 3.63 | Q 2.91
E40: L 3.96 | Y 3.89 | Q 3.91 | C 3.51 | H 3.59 | N 3.12 | K 3.32 | S 3.73 | P 0.357 | I 4.1 | T 4.12 | D 3.04 | A 3.52 | G 2.84 | M 3.87 | V 4.23 | F 3.81 | R 3.46 | W 3.95
L39: T 2.59 | H 0.352 | F 3.48 | S 1.55 | I 3.67 | C 3.88 | A 3.65 | Y 2.59 | R -0.147 | G 2.35 | N -0.472 | M 3.66 | K -0.798 | W 2.03 | V 3.83
E53: W 4.23 | G 2.14 | R 2.69 | K 2.54 | I 4.15 | A 2.99 | F 4.03 | N 2.78 | S 3.33 | T 3.62 | P -0.812 | V 3.94 | C 3.34 | Q 3.39 | D 3.76 | H 3.47 | Y 4.21 | M 3.58 | L 4.04
K46: L 3.79 | Y 3.93 | C 3.6 | T 3.85 | W 3.7 | G 3.49 | H 3.9 | E 3.44 | V 3.98 | R 4.01 | S 3.73 | A 3.65 | M 3.89 | N 3.81 | P 2.63 | D 3.43 | Q 3.84 | F 3.81 | I 4.03
T51: I 4.13 | L 3.99 | E 3.87 | S 3.75 | M 3.95 | G 2.5 | F 3.66 | R 3.33 | W 3.98 | C 3.59 | Y 3.75 | Q 3.56 | H 3.24 | N 3.09 | A 3.6 | K 3 | D 3.01 | V 4.22
G45: V 2.85 | D 3.57 | I 2.91 | R 3.42 | M 3.52 | A 3.5 | E 3.49 | W 3.66 | F 3.97 | Q 3.5 | H 3.44 | S 3.75 | C 3.29 | K 3.4 | T 3.49 | L 3.42 | N 3.55 | Y 3.55 | P 1.96
